The values below come from patent US20260250381A1.

Residue numbers refer to the chain shown, from its start.

B1: 6E7 variant V77 (antibody, V domains shown)
VH: EVQLVQSGAEVKKPGESLKISCKGSGYSFTSYWIAWVRQMPGKGLEWMGIIYPGDSDTRYSPSFQGQVTISADKSISTAYLQWSSLKASDTAMYFCARQRTFYYDSSDYFDYWGQGTLVTVSS
VL: DIQMTQSPSSVSASVGDRVTITCRASQGISSWLAWYQQKPGKAPKLLIYAASSRQNGVPSRFSGSGSGTDFTLTISSLQPEDFATYFCQQADSFPRTFGQGTKLEIK
B2: 6E7 variant V4 (antibody, V domains shown)
VH: B1 VH with T30G, Y60V, Q99S
VL: B1 VL with S53R, R54L, F94Y
B3: 6E7 variant V15 (antibody, V domains shown)
VH: B1 VH with T30A, I50T, Q99S
VL: B1 VL with S53W, R54L, F94Y
B4: 6E7 variant V24 (antibody, V domains shown)
VH: B1 VH with T58V, Q99S
VL: B1 VL with R54L, N56K, R96H
B5: 6E7 variant V88 (antibody, V domains shown)
VH: B1 VH with T30G
VL: B1 VL with S53R, R54L, N56R, F94S
B6: 6E7 variant V16 (antibody, V domains shown)
VH: B1 VH with F29M, S56G, Q99S
VL: B1 VL with S53N, R54L
B7: 6E7 variant V29 (antibody, V domains shown)
VH: B1 VH with T30K
VL: B1 VL with R54L
B8: 6E7 variant V28 (antibody, V domains shown)
VH: B1 VH with T30Q, I50T, Y103F
VL: B1 VL with R54L, N56S, F94L
B9: 6E7 variant V89 (antibody, V domains shown)
VH: B1 VH
VL: B1 VL with R54L, F94H
B10: 6E7 variant V13 (antibody, V domains shown)
VH: B1 VH with T30G, P62A, Q99G
VL: B1 VL with R54L, N56G, F94M
B11: 6E7 variant V27 (antibody, V domains shown)
VH: B1 VH with S61A, A97V, Q99S
VL: B1 VL with R54L, N56R
B12: 6E7 variant V85 (antibody, V domains shown)
VH: B1 VH with T30R, I50T, Q99S
VL: B1 VL
B13: 6E7 variant V3 (antibody, V domains shown)
VH: B1 VH with T30A, G66D, Q99G
VL: B1 VL with S93R
B14: 6E7 variant V14 (antibody, V domains shown)
VH: B1 VH with T30G, S56Q, Q99G
VL: B1 VL with S53R, R54L
B15: 6E7 variant V17 (antibody, V domains shown)
VH: B1 VH with T30G, Q99S
VL: B1 VL with F94S
B16: 6E7 variant V25 (antibody, V domains shown)
VH: B1 VH with T30G, I50L, Q99S
VL: B1 VL with R54L, Q55A, F94M
B17: 6E7 variant V86 (antibody, V domains shown)
VH: B1 VH with T30G, I34L, Q65E, Q99S
VL: B1 VL
B18: 6E7 variant V87 (antibody, V domains shown)
VH: B1 VH with T30R, T58V, S63D, Q99S
VL: B1 VL with R54L, N56W
B19: 6E7 variant V26 (antibody, V domains shown)
VH: B1 VH with A35G, I50T, F102M, Y112A
VL: B1 VL with R54L, N56R, F94Y
B20: 6E7 variant V84 (antibody, V domains shown)
VH: B1 VH with S28G, F110S
VL: B1 VL with A50G, R54L
B21: 6E7 variant V5 (antibody, V domains shown)
VH: B1 VH with I50T
VL: B1 VL with R54L, F94H

The target of one experiment is T1, human TREM2 (human) (UniProt Q9NZC2).
T1 sequence (looked up): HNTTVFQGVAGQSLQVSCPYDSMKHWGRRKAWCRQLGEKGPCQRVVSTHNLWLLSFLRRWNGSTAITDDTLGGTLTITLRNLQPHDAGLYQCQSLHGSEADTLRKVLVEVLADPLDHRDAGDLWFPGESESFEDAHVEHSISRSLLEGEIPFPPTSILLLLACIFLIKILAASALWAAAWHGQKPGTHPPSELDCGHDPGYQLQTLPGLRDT
Kind of experiment: 1st screen, 10 nM Ab.
Take B1: the Binding Signal (fold over 6E7 parental antibody) came to 1.43 fold.
In the case of B2, the Binding Signal (fold over 6E7 parental antibody) came to 6 fold.
Still for that read-out and setting: the result for B3 reads 5.23 fold; that for B4, 2.64 fold.
Same read-out and setting: under B5 stands 4.92 fold.
The same measure, in the same setting: under B6 stands 4.01 fold; under B7, 1.53 fold.
Regarding B8, the Binding Signal (fold over 6E7 parental antibody) worked out at 3.08 fold.
As to B9, the Binding Signal (fold over 6E7 parental antibody) amounted to 1.33 fold.
On the same count and under the same terms, under B10 stands 1.31 fold.
The same measure, in the same setting: under B11 stands 5.5 fold; under B12, 5.41 fold.
Consider B13, for which the Binding Signal (fold over 6E7 parental antibody) worked out at 1.97 fold.
Consider B14, for which the Binding Signal (fold over 6E7 parental antibody) was determined as 4.71 fold.
For the molecule B15, the Binding Signal (fold over 6E7 parental antibody) was 5.37 fold.
B16: the Binding Signal (fold over 6E7 parental antibody) is 4.23 fold.
Consider B17, for which the Binding Signal (fold over 6E7 parental antibody) came to 4.8 fold.
On the same count and under the same terms, under B18 stands 3.84 fold; under B19, 3.57 fold; under B20, 1.44 fold.
Same read-out and setting: under B21 stands 2.73 fold.

In the next experiment the target is T1, human TREM2 (human). The experiment in a line: 2nd screen, 2 nM Ab.
With B1, the Binding Signal (fold over 6E7 parental antibody) was found to be 0.83 fold.
Same read-out and setting: the result for B2 reads 5.88 fold.
On to B3, for which the Binding Signal (fold over 6E7 parental antibody) was determined as 4.72 fold.
Take B4: the Binding Signal (fold over 6E7 parental antibody) was 1.42 fold.
Same read-out and setting: under B5 stands 5.57 fold.
Same read-out and setting: the result for B6 reads 3.57 fold.
Still for that read-out and setting: under B7 stands 0.84 fold; under B8, 2.63 fold.
In the case of B9, the Binding Signal (fold over 6E7 parental antibody) stood at 0.94 fold.
Same read-out and setting: under B10 stands 1.15 fold; under B11, 5.67 fold.
Take B12: the Binding Signal (fold over 6E7 parental antibody) was 5.41 fold.
For the molecule B13, the Binding Signal (fold over 6E7 parental antibody) turned out to be 1.95 fold.
In the case of B14, the Binding Signal (fold over 6E7 parental antibody) stood at 2.57 fold.
On the same count and under the same terms, the result for B15 reads 4.22 fold.
Take B16: the Binding Signal (fold over 6E7 parental antibody) turned out to be 3.15 fold.
On to B17, for which the Binding Signal (fold over 6E7 parental antibody) came to 5.17 fold.
For the molecule B18, the Binding Signal (fold over 6E7 parental antibody) worked out at 4.86 fold.
As to B19, the Binding Signal (fold over 6E7 parental antibody) worked out at 2.83 fold.
Turning to B20, the Binding Signal (fold over 6E7 parental antibody) worked out at 1.45 fold.
B21: the Binding Signal (fold over 6E7 parental antibody) is 1.25 fold.

Another experiment concerns the target T1, human TREM2 (human). The experiment in a line: 2nd screen, 10 nM Ab.
Consider B1, for which the Binding Signal (fold over 6E7 parental antibody) stood at 1.38 fold.
Take B2: the Binding Signal (fold over 6E7 parental antibody) came to 5.51 fold.
Same read-out and setting: the result for B3 reads 4.78 fold; that for B4, 2.9 fold; that for B5, 5.3 fold.
Same read-out and setting: under B6 stands 4.04 fold; under B7, 1.67 fold; under B8, 3.61 fold.
On the same count and under the same terms, the result for B9 reads 1.46 fold.
Consider B10, for which the Binding Signal (fold over 6E7 parental antibody) stood at 1.35 fold.
For B11, the Binding Signal (fold over 6E7 parental antibody) worked out at 5.69 fold.
Still for that read-out and setting: under B12 stands 5.37 fold; under B13, 2.24 fold.
As for B14, the Binding Signal (fold over 6E7 parental antibody) stood at 4.64 fold.
Turning to B15, the Binding Signal (fold over 6E7 parental antibody) came out at 5.51 fold.
On the same count and under the same terms, under B16 stands 4.7 fold; under B17, 5.02 fold; under B18, 3.93 fold.
On to B19, for which the Binding Signal (fold over 6E7 parental antibody) was determined as 3.47 fold.
Regarding B20, the Binding Signal (fold over 6E7 parental antibody) turned out to be 1.62 fold.
Consider B21, for which the Binding Signal (fold over 6E7 parental antibody) came out at 2.84 fold.
